We go through four molecules from patent US20250127943A1 (published 2025).

For experiment [1], the target named is Epidermal growth factor receptor I (EGFR) (human) (UniProt P00533). Kind of experiment: flow cytometry saturation binding on EGFR positive cells. Background: In flow cytometry, cells or beads pass a laser one at a time.
The target is the same in experiment [2]. Kind of experiment: competitive radioligand binding on MDA-MB-468 cells; pre-blocking with 100-fold excess unlabeled 8709-scFv-Fc, tracer ^225Ac-8709-scFv-Fc at 50 nM.
Experiment [3] shares this target. Kind of experiment: flow cytometry on MDA-MB-468 cells.
The target in experiment [4] is T1, Epidermal growth factor receptor I (EGFR) (human, UniProt P00533 25-1210).
T1 construct: whole, on cells; MDA-MB-231 cells also carry EphA2; also called ErbB-1; HER1
Kind of experiment: flow cytometry on MDA-MB-468 cells. On the procedure: (§1) Binding profile of immunoconjugates to MDA-MB468 (high EGFR expression) and MDA-MB-435 (EGFR negative) was studied using flow cytometry. […] A saturation binding curve was performed to determine the binding constants KD at which immunoconjugates bind to the cell.
(§2) In vitro binding to target receptor (e.g. EGFR) positive cells was performed for all immunoconjugates and compared with corresponding unconjugated antibody, and control IgG. […] Target antibodies, control IgG and their respective ADCs were titrated at a minimum of a 10-fold excess onto 1×10⁵ cells. The cell-compound reactions were incubated for 30 minutes at room temperature followed by 15 minutes on ice. Cells were washed and resuspended in a 1:50 dilution of PE or FITC labeled Goat F(ab′)2 fragment anti-human IgG (H+L) antibody (Beckman Coulter, IM0839) and incubated for 30 minutes on ice in the dark. Cells were washed and suspended in 2% FBS-PBS. Data was acquired using a Beckman Coulter Gallios flow cytometer and the results were analysed using FlowJoV10. The binding constant KD for each conjugate were generated using a non-linear regression curve fit with GraphPad prism 6.

In experiment [5] the target is T1, Epidermal growth factor receptor I …. In words: flow cytometry saturation binding on EGFR positive cells. On the procedure: as §1, §2
Experiment [6] shares this target. In words: flow cytometry saturation binding on MDA-MB-468 cells. On the procedure: as §1, §2
Experiment [7] has the same target. Kind of experiment: saturation radioligand binding assay on MDA-MB-468 cells.

B1: 8709-scFv-Fc (Fc fusion, part only; not given: Linker, domain order, hinge and Fc, not shown: another chain or arm of the molecule; a dimerising Fc or GST; small tags and cut ends)
VH: EVQLVESGGGLVQPGGSLRLSCAASGFNLYSSSMHWVRQAPGKGLEWVASIYPYSGYTYYADSVKGRFTISADTSKNTAYLQMNSLRAEDTAVYYCARYPFGVSAYYAMDYWGQGTLVTVSS
VL: DIQMTQSPSSLSASVGDRVTITCRASQSVSSAVAWYQQKPGKAPKLLIYSASSLYSGVPSRFSGSRSGTDFTLTISSLQPEDFATYYCQQSYWLITFGQGTKVEIK
As to B1, in experiment [1], the Kd (in general, the constant that tells how readily two partners part at equilibrium) was 1.1 nM. In experiment [2], this molecule had a fold reduction in the binding of ^225Ac-8709-scFv-Fc to EGFR of 23.2 fold. The same molecule registered a % binding in experiment [3] of more than 90%.

B2: 8709-scFv-Fc-PEG6-DM1 (Fc fusion)
VH: EVQLVESGGGLVQPGGSLRLSCAASGFNLYSSSMHWVRQAPGKGLEWVASIYPYSGYTYYADSVKGRFTISADTSKNTAYLQMNSLRAEDTAVYYCARYPFGVSAYYAMDYWGQGTLVTVSS
VL: DIQMTQSPSSLSASVGDRVTITCRASQSVSSAVAWYQQKPGKAPKLLIYSASSLYSGVPSRFSGSRSGTDFTLTISSLQPEDFATYYCQQSYWLITFGQGTKVEIKR
modifications: PEG6-DM1 conjugated via NHS (drug to antibody ratio 3.5), sites not stated
For the molecule B2, the “% binding” value in experiment [4] was more than 90%. The same molecule gave a Kd in experiment [5] of 4.2 nM.

B3: Macropa-8709-scFv-Fc (Fc fusion)
VH: EVQLVESGGGLVQPGGSLRLSCAASGFNLYSSSMHWVRQAPGKGLEWVASIYPYSGYTYYADSVKGRFTISADTSKNTAYLQMNSLRAEDTAVYYCARYPFGVSAYYAMDYWGQGTLVTVSS
VL: DIQMTQSPSSLSASVGDRVTITCRASQSVSSAVAWYQQKPGKAPKLLIYSASSLYSGVPSRFSGSRSGTDFTLTISSLQPEDFATYYCQQSYWLITFGQGTKVEIKR
modifications: macropa chelator conjugated via macropa-NCS, sites not stated
With B3, the “fold higher KD value as compared to 8709-scFv-Fc” value in experiment [6] is 10.4 fold. In experiment [5], the Kd was 11.3 nM.

B4: ^225Ac-8709-scFv-Fc (Fc fusion)
VH: EVQLVESGGGLVQPGGSLRLSCAASGFNLYSSSMHWVRQAPGKGLEWVASIYPYSGYTYYADSVKGRFTISADTSKNTAYLQMNSLRAEDTAVYYCARYPFGVSAYYAMDYWGQGTLVTVSS
VL: DIQMTQSPSSLSASVGDRVTITCRASQSVSSAVAWYQQKPGKAPKLLIYSASSLYSGVPSRFSGSRSGTDFTLTISSLQPEDFATYYCQQSYWLITFGQGTKVEIKR
modifications: macropa chelator with ^225Ac, sites not stated
In turn, B4 registered a Kd in experiment [7] of 14.5 nM.
